Experimental data as given in patent US20220363763A1 (ABL BIO, published 2022).

B1: 147(H3807)xB6 (bispecific antibody, human IgG4 S228P, kappa)
heavy: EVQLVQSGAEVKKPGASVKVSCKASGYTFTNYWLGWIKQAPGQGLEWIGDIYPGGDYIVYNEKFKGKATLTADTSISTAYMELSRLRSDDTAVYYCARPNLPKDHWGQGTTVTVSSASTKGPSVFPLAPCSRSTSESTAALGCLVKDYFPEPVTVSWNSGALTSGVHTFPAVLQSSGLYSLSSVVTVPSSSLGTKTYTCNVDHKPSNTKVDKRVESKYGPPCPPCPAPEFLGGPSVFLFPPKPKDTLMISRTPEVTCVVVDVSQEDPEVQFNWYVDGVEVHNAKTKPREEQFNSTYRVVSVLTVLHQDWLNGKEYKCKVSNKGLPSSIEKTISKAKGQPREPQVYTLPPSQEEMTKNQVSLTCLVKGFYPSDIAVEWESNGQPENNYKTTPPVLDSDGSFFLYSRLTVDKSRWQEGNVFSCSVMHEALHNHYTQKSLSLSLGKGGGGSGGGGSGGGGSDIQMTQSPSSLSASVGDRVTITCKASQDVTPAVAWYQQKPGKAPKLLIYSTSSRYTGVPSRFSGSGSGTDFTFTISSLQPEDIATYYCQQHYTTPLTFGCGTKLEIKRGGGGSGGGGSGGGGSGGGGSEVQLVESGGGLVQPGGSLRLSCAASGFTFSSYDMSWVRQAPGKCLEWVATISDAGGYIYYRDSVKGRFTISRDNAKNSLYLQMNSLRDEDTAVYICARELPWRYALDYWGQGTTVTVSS
light: DIVMTQSPLSLPVTPGEPASISCRSSKSLLHSQGITYLYWYLQKPGQSPQLLIYQVSNLASGVPDRFSGSGSGTDFTLKISRVEAEDVGVYYCAQYLELPWTFGGGTKVEIKRTVAAPSVFIFPPSDEQLKSGTASVVCLLNNFYPREAKVQWKVDNALQSGNSQESVTEQDSKDSTYSLSSTLTLSKADYEKHKVYACEVTHQGLSSPVTKSFNRGEC
B2: H12x147(H3807) (bispecific antibody, human IgG1, kappa, N297A)
heavy chain of H12 (IgG) - linker - scFv of 147(H3807) (VL - linker - VH): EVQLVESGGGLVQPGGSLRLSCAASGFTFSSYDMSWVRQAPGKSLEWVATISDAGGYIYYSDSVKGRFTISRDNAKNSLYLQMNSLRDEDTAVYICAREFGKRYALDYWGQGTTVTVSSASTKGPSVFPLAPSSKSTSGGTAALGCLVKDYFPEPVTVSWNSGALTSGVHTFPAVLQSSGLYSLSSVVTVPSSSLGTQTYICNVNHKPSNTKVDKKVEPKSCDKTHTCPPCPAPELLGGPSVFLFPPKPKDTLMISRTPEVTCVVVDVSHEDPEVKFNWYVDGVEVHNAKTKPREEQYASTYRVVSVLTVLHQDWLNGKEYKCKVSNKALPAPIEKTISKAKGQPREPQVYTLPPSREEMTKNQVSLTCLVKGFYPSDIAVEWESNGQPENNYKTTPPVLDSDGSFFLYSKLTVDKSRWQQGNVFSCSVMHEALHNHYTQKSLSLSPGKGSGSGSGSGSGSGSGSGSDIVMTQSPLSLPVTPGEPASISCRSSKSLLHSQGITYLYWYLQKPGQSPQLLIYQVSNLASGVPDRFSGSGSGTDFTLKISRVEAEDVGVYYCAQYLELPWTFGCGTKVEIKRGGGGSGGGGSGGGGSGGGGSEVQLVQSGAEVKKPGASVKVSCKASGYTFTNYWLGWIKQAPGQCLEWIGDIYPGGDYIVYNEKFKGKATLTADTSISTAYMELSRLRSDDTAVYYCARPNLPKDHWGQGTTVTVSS
light chain of H12: DIQMTQSPSSLSASVGDRVTITCKASQDVTPAVAWYQQKPGKAPKLLIYSTSSRYTGVPSRFSGSGSGTDFTFTISSLQPEDIATYYCQQHYTTPLTFGQGTKLEIKRTVAAPSVFIFPPSDEQLKSGTASVVCLLNNFYPREAKVQWKVDNALQSGNSQESVTEQDSKDSTYSLSSTLTLSKADYEKHKVYACEVTHQGLSSPVTKSFNRGEC
B3: B6x147(H3807) (bispecific antibody, human IgG1, kappa, N297A)
heavy: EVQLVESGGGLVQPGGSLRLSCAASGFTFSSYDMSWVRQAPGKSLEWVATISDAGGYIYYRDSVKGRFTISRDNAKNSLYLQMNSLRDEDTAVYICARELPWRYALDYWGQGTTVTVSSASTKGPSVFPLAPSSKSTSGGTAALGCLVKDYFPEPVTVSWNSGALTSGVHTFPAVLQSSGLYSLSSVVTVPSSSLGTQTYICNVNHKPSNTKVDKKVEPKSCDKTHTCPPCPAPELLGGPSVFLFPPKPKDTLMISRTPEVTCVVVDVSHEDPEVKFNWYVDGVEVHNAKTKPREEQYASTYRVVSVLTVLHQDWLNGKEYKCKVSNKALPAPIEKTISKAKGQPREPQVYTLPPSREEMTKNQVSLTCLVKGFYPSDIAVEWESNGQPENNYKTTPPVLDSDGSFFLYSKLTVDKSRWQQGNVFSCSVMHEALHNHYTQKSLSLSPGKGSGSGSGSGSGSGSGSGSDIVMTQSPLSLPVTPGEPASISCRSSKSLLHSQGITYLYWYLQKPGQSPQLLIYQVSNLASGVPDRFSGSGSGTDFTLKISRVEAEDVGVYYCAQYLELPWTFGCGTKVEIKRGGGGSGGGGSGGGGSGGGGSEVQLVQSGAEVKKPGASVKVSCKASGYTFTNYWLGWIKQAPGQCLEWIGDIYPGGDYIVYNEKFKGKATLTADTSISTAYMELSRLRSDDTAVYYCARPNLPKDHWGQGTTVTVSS
light: B2 light chain of H12

Key:
[1] = molecular target: T1, human PD-L1 (construct not stated) (human, UniProt Q9NZQ7 19-239, limits assumed); test: SPR Biacore, capture method
T1 construct: also called B7-H1 (PD-L1); PD-L1 protein
Experimental: (§1) The binding affinities of bispecific antibodies PD-L1 and LAG3 of the bispecific antibodies (BsAb; 147xH12, 147H3807xB6 and B6x147H3807) prepared in Example 3 to PD-L1 protein and human LAG3 protein were tested with BIACORE™ using a capture method.

[2] = molecular target: T2, human LAG3 (construct not stated) (human, UniProt P18627 23-450, limits assumed); test: SPR Biacore, capture method
T2 construct: also called human LAG3 protein; antigen
T2 sequence (looked up): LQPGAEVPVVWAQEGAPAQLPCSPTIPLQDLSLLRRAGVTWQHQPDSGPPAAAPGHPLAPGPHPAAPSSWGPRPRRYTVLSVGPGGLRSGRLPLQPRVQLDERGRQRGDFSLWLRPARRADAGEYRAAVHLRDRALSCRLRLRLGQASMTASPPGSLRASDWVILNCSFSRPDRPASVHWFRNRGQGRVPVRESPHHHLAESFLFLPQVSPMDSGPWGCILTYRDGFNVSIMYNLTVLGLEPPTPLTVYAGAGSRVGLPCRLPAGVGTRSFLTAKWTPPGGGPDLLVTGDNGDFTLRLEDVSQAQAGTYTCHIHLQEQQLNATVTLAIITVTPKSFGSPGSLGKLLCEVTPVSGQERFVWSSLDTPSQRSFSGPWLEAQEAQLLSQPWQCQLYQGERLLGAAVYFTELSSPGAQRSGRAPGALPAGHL
Experimental: as §1

[3] = molecular target: T3, human PD-L1-Fc protein (human, UniProt Q9NZQ7 19-239); test: ELISA on coated human PD-L1-Fc, panel PD-L1
T3 construct: Coated on ELISA plates; also called huPD-L1; not shown: Fc part
Source text: To evaluate the binding activity to PD-L1 and LAG3 of the bispecific antibodies (BsAb; H12x147 and 147xH12) prepared in Example 3, the BsAb were subjected to ELISA test.

T3 sequence (Q9NZQ7 19-239 limits assumed): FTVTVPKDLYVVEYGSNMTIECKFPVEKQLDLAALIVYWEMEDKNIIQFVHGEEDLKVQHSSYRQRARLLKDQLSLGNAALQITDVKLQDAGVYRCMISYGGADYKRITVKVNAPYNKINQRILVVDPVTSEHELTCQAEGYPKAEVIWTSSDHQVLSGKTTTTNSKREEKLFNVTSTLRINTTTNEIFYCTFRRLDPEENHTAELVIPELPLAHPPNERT
T1 sequence (Q9NZQ7 19-239 limits assumed): as above

Row | Binder | Kd [1] | Kd [2] | EC50 (read off the curve) [3]
1 | B1 | 5.94 nM | 1.63 nM | 
2 | B2 |  |  | ~1 nM
3 | B3 | 1.18 nM | 8.87 nM | ~0.3 nM
